Laboratory results reported in PMC2714540.

Biological target: Smurf1 (UniProt Q9HCE7)
Test: binding to Smurf1, pull-down format inferred
Conditions: reference: Tal210-605 wild type; sites S425

## talin (talin head, TH) 210-605 (from UniProt P26039) Tal210-605 S425A
  binding against the reference: stronger
